Measurements published in PMC4847949 (Journal of molecular biology, 2016).

T1: MiniFLASH (human, UniProt Q9UKL3 1-138; Q9UKL3 1931-1982)
T1 sequence (looked up): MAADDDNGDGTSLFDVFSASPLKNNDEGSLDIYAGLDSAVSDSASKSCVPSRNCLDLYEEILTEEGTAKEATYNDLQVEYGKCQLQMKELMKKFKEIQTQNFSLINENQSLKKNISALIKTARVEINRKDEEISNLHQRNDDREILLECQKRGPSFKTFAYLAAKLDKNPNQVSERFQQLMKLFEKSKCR

B1: Lsm 169N (MBP fusion) (domain or fragment, human, UniProt P83369 1-169, looked up)
chain: MEERERGARSAGAGSPARPPSPRLDVSSDSFDPLLALYAPRLPPIPYPNAPCFNNVAEYESFLRTGVRGGGRGRGRARGAAAGSGVPAAPGPSGRTRRRPDAPAPDPERIQRLRRLMVAKEEGDGAAGAGRRGPGRSRKAPRNVLTRMPLHEGSPLGELHRCIREGVKV

How the values were obtained:
MiniFLASH = target: T1, MiniFLASH; test: HDX-MS
Lsm 169N (MBP fusion) = target: B1; test: HDX-MS

binding result (MiniFLASH) | binding result (Lsm 169N (MBP fusion)) | Binder
binds | – | B1
– | binds | FLASH 138N (domain or fragment, human, UniProt Q9UKL3 29-138, looked up) SLDIYAGLDSAVSDSASKSCVPSRNCLDLYEEILTEEGTAKEATYNDLQVEYGKAQLQMKELMKKFKEIQTQNFSLINENQSLKKNISALIKTARVEINRKDEEISNLHQ
– | binds | FLASH 159N (domain or fragment, human, UniProt Q9UKL3 1-159, looked up) MAADDDNGDGTSLFDVFSASPLKNNDEGSLDIYAGLDSAVSDSASKSCVPSRNCLDLYEEILTEEGTAKEATYNDLQVEYGKAQLQMKELMKKFKEIQTQNFSLINENQSLKKNISALIKTARVEINRKDEEISNLHQRLSEFPHFRNNHKTARTFDTV
